PMC4620603

Target: pyrene-labeled tropomyosin from bovine cardiac tissue (bovine) (UniProt Q5KR49)
Assay: other fluorescence titration; troponin complex binding to 100 nM pyrene-tropomyosin, 23 °C, 20 mM Hepes pH 7.5, 100 mM KCl, 2 mM MgCl2, 1 mM DTT

Kd [nM] | Substance
68 | human adult cardiac troponin complex, wild type (troponin T, troponin I, troponin C) (from UniProt P45379-6 1-288; P19429 1-210; P02585 1-160)
48 | human adult cardiac troponin complex with R205Q troponin T (from UniProt P45379-6 1-288; P19429 1-210; P02585 1-160)
